Data as given in publication doi:10.1101/2020.07.07.192807 (bioRxiv, 2020).
Substitutions are numbered along the chain they refer to. In names and notes the source's numbering stands.

B1: Wild type MtrR of Neisseria gonorrhoeae (strain FA19), hexa-histidine tagged (natural protein)
chain: MRKTKTEALKTKEHLMLAALETFYRKGIARTSLNEIAQAAGVTRGALYWHFKNKEDLFDALFQRICDDIENCIAQDAADAEGGSWTVFRHTLLHFFERLQSNDIHYKFHNILFLKCEHTEQNAAVIAIARKHQAIWREKITAVLTEAVENQDLADDLDKETAVIFIKSTLDGLIWRWFSSGESFDLGKTAPRIIGIMMDNLENHPCLRRK
B2: H105Y mutant MtrR of Neisseria gonorrhoeae (from an antibiotic resistant clinical isolate), hexa-histidine tagged (natural protein)
chain: B1 chain with H105Y

Target: the molecule itself
Experiment: cross-linking

| Protein | stoichiometry N |
| --- | --- |
| B1 | 2 |
| B2 | 2 |
